To fix the notation:
B1: Azoarcus group I ribozyme (parent)
chain: GUGCCUUGCGCCGGGAAACCACGCAAGGGAUGGUGUCAAAUUCGGCGAAACCUAAGCGCCCGCCCGGGCGUAUGGCAACGCCGAGCCAAGCUUCGGCGCCUGCGCCGAUGAAGGUGUAGAGACUAGACGGCACCCACCUAAGGCAAACGCUAUGGUGAAGGCAUAGUCCAGGGAGUGGCGAAAGUCACACAAACCGG

Data on 83 variants can be found in the RNAGym collection of RNA variant scans (doi:10.1093/molbev/msab373).

The variants in the data set derive from B1. Put plainly: reverse-splicing fitness (ratio to wild type); higher = more active; in vitro selection; Mg2+ level not given. An outline of the steps: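 An in vitro group I ribozyme library with randomized positions was T7-transcribed and gel-purified. In triplicate, 10 pmol RNA in EPPS pH 7.5 was reacted with 50 pmoles of a 30-nt RNA substrate for 1 h at 37 °C across several added MgCl2 levels (1–48 mM), then stopped with EDTA. Products were reverse transcribed from a substrate-complementary primer, PCR-amplified and sequenced (HiSeq 4000). Fitness is a variant's read proportion after selection over that before, normalised to wild type.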
For C82U A120U C150U C169U, the reverse-splicing fitness is 0.00548.
With C82U A145C C169A U176C the figure was 0.00633; with C82U A145C C169A U176A, 0.00806; with C82U A145C C169A U176G, 0.00383.
As for C82U A120U A145U C150U C169A U176G, the reverse-splicing fitness was determined as 0.0019.
With C82U A120U A145U C150U C169A U176A the figure was 0.00262; with C82U A120U A145U C150U C169A U176C, 0.00256.
The value for C82U A120U C150A C169A U176A was 0.00373; that for C82U A120U C150A C169A U176G was 0.00199.
With C82U A120U C150A C169A U176C the figure was 0.0026.
On to C82U A120U A145U C150U U176G, for which the reverse-splicing fitness is 0.00848.
With C82U A120U A145U C150U U176C the figure was 0.0465; with C82U A120U A145U C150U U176A, 0.0284.
With C82U A120U A145G C169G the figure was 0.00532; with C82U A120U A145G C169A, 0.00259; with C82U A120U A145G C169U, 0.00624.
The value for C82U A120U A145G C150A C169A was 0.00483; that for C82U A120U A145G C150A C169U was 0.00334; that for C82U A120U A145G C150A C169G was 0.00351.
Regarding C82U A120U A145G C169G U176G, the reverse-splicing fitness is 0.00136.
Consider C82U A120U A145G C169G U176C, for which the reverse-splicing fitness amounted to 0.00346.
The value for C82U A120U A145G C169G U176A was 0.00271.
With C82U A120U A145U C150U C169G the figure was 0.00432.
C82U A120U A145U C150U C169U: the reverse-splicing fitness amounted to 0.00476.
With C82U A120U A145U C150U C169A the figure was 0.0024.
With C82U A120U A145C C150A C169A U176C the figure was 0.00171; with C82U A120U A145C C150A C169A U176G, 0.00165; with C82U A120U A145C C150A C169A U176A, 0.00177.
For the variant C82U A120U A145C C150U, the reverse-splicing fitness was 0.0391.
The value for C82U A120U A145C C150G was 0.0193; that for C82U A120U A145C C150A was 0.00884.
With C82U A120U A145U C150G U176G the figure was 0.00253; with C82U A120U A145U C150G U176C, 0.0104.
With C82U A120U A145U C150G U176A the figure was 0.00548; with C82U A145C C150G C169U, 0.00824; with C82U A145C C150G C169A, 0.00743.
Turning to C82U A145C C150G C169G, the reverse-splicing fitness is 0.00699.
As to C82U A120U C150G U176C, the reverse-splicing fitness was 0.00788.
Take C82U A120U C150G U176G: the reverse-splicing fitness came out at 0.0022.
The value for C82U A120U C150G U176A was 0.00531; that for C82U A120U A145C C150G C169G U176G was 0.00188.
The value for C82U A120U A145C C150G C169G U176C was 0.0019; that for C82U A120U A145C C150G C169G U176A was 0.00206.
With C82U A120U A145C C150U C169G U176A, the reverse-splicing fitness came to 0.00259.
The value for C82U A120U A145C C150U C169G U176G was 0.00153; that for C82U A120U A145C C150U C169G U176C was 0.00188; that for C82U A120U C150U C169A U176C was 0.00192.
Turning to C82U A120U C150U C169A U176G, the reverse-splicing fitness is 0.00208.
Turning to C82U A120U C150U C169A U176A, the reverse-splicing fitness is 0.00329.
For C82U A120U A145U C150A C169A, the reverse-splicing fitness amounted to 0.00179.
As for C82U A120U A145U C150A C169U, the reverse-splicing fitness came to 0.0022.
With C82U A120U A145U C150A C169G the figure was 0.00199.
With C82U A120U A145U C150A C169G U176A the figure was 0.00218; with C82U A120U A145U C150A C169G U176G, 0.00147; with C82U A120U A145U C150A C169G U176C, 0.00274.
With C82U A120U A145C C150A C169G U176A the figure was 0.00223; with C82U A120U A145C C150A C169G U176G, 0.00161.
Turning to C82U A120U A145C C150A C169G U176C, the reverse-splicing fitness was found to be 0.00196.
Take C82U A120U A145G C150G: the reverse-splicing fitness was 0.0229.
Regarding C82U A120U A145G C150U, the reverse-splicing fitness turned out to be 0.137.
With C82U A120U A145G C150A the figure was 0.0257; with C82U A120U A145U C150A U176C, 0.0101; with C82U A120U A145U C150A U176A, 0.00666.
With C82U A120U A145U C150A U176G the figure was 0.00379; with C82U A120U A145C C150A C169U U176G, 0.00151.
The value for C82U A120U A145C C150A C169U U176C was 0.00195.
With C82U A120U A145C C150A C169U U176A, the reverse-splicing fitness came out at 0.00218.
With C82U A120U C150U C169U U176A the figure was 0.00407; with C82U A120U C150U C169U U176C, 0.0038.
With C82U A120U C150U C169U U176G the figure was 0.00209.
For C82U A120U A145G C150G C169G U176G, the reverse-splicing fitness is 0.00346.
The value for C82U A120U A145G C150G C169G U176C was 0.00499; that for C82U A120U A145G C150G C169G U176A was 0.00758.
With C82U A120U A145G C150U C169A U176C the figure was 0.00278; with C82U A120U A145G C150U C169A U176G, 0.0022; with C82U A120U A145G C150U C169A U176A, 0.00476.
The value for C82U A120U C150G C169U U176C was 0.00349; that for C82U A120U C150G C169U U176G was 0.00244; that for C82U A120U C150G C169U U176A was 0.00334.
With C82U A120U A145C U176A, the reverse-splicing fitness was 0.0354.
The value for C82U A120U A145C U176G was 0.011; that for C82U A120U A145C U176C was 0.0503.
With C82U A145C C150A C169A the figure was 0.00751.
